In this experiment the target is human CD160 (CD160 GPI isoform) on cells (human) (UniProt O95971). Kind of experiment: flow cytometry, percentage of labelled YT2C2 NK cells, 0.39-50 nM; the text means weaker binding. Background: In flow cytometry, cells or beads pass a laser one at a time.
human CD160 (CD160 GPI isoform) on cells (human), sequence (O95971 25-159 limits assumed): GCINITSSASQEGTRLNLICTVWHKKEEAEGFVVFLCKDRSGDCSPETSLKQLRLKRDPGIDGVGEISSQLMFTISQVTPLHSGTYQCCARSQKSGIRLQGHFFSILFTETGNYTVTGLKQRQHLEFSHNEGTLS

B1: Fab CH1 IgG1 D12 (Fab)
heavy: QVQLVQSGAEVKKPGASVKVSCKASGYTFSDFWMQWIRQAPGQGLEWIGAIYPGDDDARVTQKFRGRATLTADKSTSTAYMELSSLRSEDTAVYYCARRGIAAVVGGFDYWGQGTTLTVSSASTKGPSVFPLAPSSKSTSGGTAALGCLVKDYFPEPVTVSWNSGALTSGVHTFPAVLQSSGLYSLSSVVTVPSSSLGTQTYICNVNHKPSNTKVDKRV
light: EIVLTQSPATLSLSPGERATLSCRASQSISNHLHWYQQKPGQAPRLLIKYASQSISGIPARFSGSGSGTDFTLTISSLEPEDFAVYFCQQSNSWPLTFGGGTKVEIKRTVAAPSVFIFPPSDEQLKSGTASVVCLLNNFYPREAKVQWKVDNALQSGNSQESVTEQDSKDSTYSLSSTLTLSKADYEKHKVYACEVTHQGLSSPVTKSFNRGEC
In turn, B1 registered an EC50, factor against H7 IgG4 (ELB01101) of 2 fold.

Source of the values: patent US20200109211A1.
